# From patent US20200148774A1 (Genentech, published 2020)
# Tests used:
# [1] = target: T1, recombinant human CLL-1 extracellular domain (ECD, amino acids 65-265) fused to an N-terminal Flag (human, UniProt Q5QGZ9 65-265); assay: SPR (Biacore T200), IgG captured by anti-human Fc, CLL-1 as analyte
# T1 construct: The construct and the K244Q SNP are stated for the immunogen; they are not written as a piece; also called huCLL-1-Flag; huCLL-1
# T1 chain: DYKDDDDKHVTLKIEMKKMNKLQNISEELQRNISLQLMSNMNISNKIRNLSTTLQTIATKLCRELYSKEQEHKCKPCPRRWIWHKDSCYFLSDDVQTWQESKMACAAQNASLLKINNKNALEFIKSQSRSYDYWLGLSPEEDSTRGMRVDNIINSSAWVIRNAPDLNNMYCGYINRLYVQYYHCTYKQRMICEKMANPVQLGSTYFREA
# [2] = target: T2, recombinant cynomolgus CLL-1 extracellular domain (ECD, amino acids 65-265) fused to an N-terminal Flag (cynomolgus monkey); assay: as above
# T2 construct: Construct stated for the immunogen; also called CynoCLL-1 Flag; cynoCLL-1
# T2 chain: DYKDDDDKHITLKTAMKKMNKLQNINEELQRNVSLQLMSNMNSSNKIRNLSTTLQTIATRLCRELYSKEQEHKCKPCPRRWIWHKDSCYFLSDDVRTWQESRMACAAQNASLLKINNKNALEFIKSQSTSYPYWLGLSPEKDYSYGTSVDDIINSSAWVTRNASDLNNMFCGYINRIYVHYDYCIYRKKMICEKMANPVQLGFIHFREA
# [3] = target: T1, recombinant human CLL-1 extracellular …; assay: SPR (Biacore T200), IgG captured by anti-human Fc, human CLL-1 as analyte
# Method: The binding affinity of the antibodies in this section was determined by BIAcore™ T200 Format. Briefly, BIAcore™ research grade CM5 chips were activated with 1-ethyl-3-(3-dimethylaminopropyl) carbodiimide (EDC) and N-hydroxysuccinimide (NHS) reagents according to the supplier's instructions. Goat anti-human Fc IgGs were coupled to the chips to achieve approximately 10,000 response units (RU) in each flow cell. Unreacted coupling groups were blocked with 1M ethanolamine. For kinetics measurements, antibodies were captured to achieve approximately 300 RU. Three-fold serial dilutions of human CLL-1 was injected in HBS-P buffer (0.01M HEPES pH7.4, 0.15M NaCl, 0.005% surfactant P20) at 25° C. with a flow rate of 30 μl/min. Association rates (kon) and dissociation rates (koff) were calculated using a 1:1 Langmuir binding model (BIAcore™ T200 Evaluation Software version 2.0). The equilibrium dissociation constant (Kd) was calculated as the ratio koff/kon.
# [4] = target: T3, human CLL-1 on cells (endogenous on HL-60, EOL-1 and other AML cell lines and CD14+ monocytes); recombinant on … (human, UniProt Q5QGZ9 1-265); assay: cell-based or functional assay
# T3 sequence: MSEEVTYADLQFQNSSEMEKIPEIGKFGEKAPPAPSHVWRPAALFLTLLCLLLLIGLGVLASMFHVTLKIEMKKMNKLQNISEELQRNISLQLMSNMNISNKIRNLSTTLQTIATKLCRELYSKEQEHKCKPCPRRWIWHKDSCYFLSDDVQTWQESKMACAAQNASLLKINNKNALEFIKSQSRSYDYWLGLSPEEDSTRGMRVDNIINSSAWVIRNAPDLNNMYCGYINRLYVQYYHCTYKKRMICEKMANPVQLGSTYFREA
# [5] = target: T3, human CLL-1 on cells (endogenous on …); assay: cell-based or functional assay; remark: listed apart in the source
# [6] = target: T3, human CLL-1 on cells (endogenous on …); assay: cell-based or functional assay; remark: listed apart in the source
# hCD3ε = target: T4, hCD3ε (human, UniProt P07766 23-126); assay: SPR (Biacore), Fab
# T4 construct: Also used for the value printed only as 'hCD3 (0.05 nM'); also called human CD3ε polypeptide
# T4 sequence (P07766 23-126): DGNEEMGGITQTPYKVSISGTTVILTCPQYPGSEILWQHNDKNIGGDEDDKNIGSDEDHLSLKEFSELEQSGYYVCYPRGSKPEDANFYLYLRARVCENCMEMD
Binder,Kd [1] [nM],koff [1] [s⁻¹],kon [1] [M⁻¹ s⁻¹],Kd [2] [nM],koff [2] [s⁻¹],kon [2] [M⁻¹ s⁻¹],also measured
"6E7.L4H1eE54 (antibody, V domains shown, IgG) VH: EVQLVQSGAEVKKPGASVKVSCKASGYSFTDYYMHWVRQAPGQGLEWIGRINPYEGAAFYSQNFKDRVTLTVDTSTSTAYLELSSLRSEDTAVYYCAIERGADLEGYAMDYWGQGTLVTVSS VL: DIQMTQSPSSLSASVGDRVTITCRASQSVSTSSYNYMHWYQQKPGKPPKLLIKYASNLESGVPSRFSGSGSGTDFTLTISSLQPEDFATYYCQHSWEIPLTFGQGTKVEIK",5.09,0.00248,488000,4.26,0.00283,664000,–
"humanized 6E7 variant CDRs graft+K49(LC)+(A67, L69, V71, K73 (HC)) (antibody, V domains shown) VH: EVQLVQSGAEVKKPGASVKVSCKASGYSFTDYYMHWVRQAPGQGLEWIGRINPYNGAAFYSQNFKDRATLTVDKSTSTAYLELSSLRSEDTAVYYCAIERGADLEGYAMDYWGQGTLVTVSS VL: DIQMTQSPSSLSASVGDRVTITCRASQSVSTSSYNYMHWYQQKPGKPPKLLIKYASNLESGVPSRFSGSGSGTDFTLTISSLQPEDFATYYCQHSWEIPLTFGQGTKVEIK",–,–,–,–,–,–,Kd [3]: 1.4 nM
"6E7.L4H1eS54 (antibody, V domains shown, IgG) VH: EVQLVQSGAEVKKPGASVKVSCKASGYSFTDYYMHWVRQAPGQGLEWIGRINPYSGAAFYSQNFKDRVTLTVDTSTSTAYLELSSLRSEDTAVYYCAIERGADLEGYAMDYWGQGTLVTVSS VL: DIQMTQSPSSLSASVGDRVTITCRASQSVSTSSYNYMHWYQQKPGKPPKLLIKYASNLESGVPSRFSGSGSGTDFTLTISSLQPEDFATYYCQHSWEIPLTFGQGTKVEIK",14.1,0.0072,510000,6.37,0.00327,513000,–
"h21C9 (h21C9.L2H3)×38E4v1 TDB (bispecific antibody, V domains shown) VH 1: EVQLVQSGAEVKKPGASVKVSCKASGYTFTDYYLDWVRQAPGQGLEWIGRVNPYNGGTIYNQKFKGRVTLTRDTSTSTAYLELSSLRSEDTAVYYCARDHYRYDPLLDYWGQGTLVTVSS VL 1: DIQMTQSPSSLSASVGDRVTITCKASQDVSTAVAWFQQKPGKAPKLLIYSPSYRYTGVPSRFSGSGSGTDFTLTISSLQPEDFATYYCQQLYSTPYTFGQGTKVEIK VH 2: EVQLVQSGAEVKKPGASVKVSCKASGFTFTSYYIHWVRQAPGQGLEWIGWIYPENDNTKYNEKFKDRVTITADTSTSTAYLELSSLRSEDTAVYYCARDGYSRYYFDYWGQGTLVTVSS VL 2: DIVMTQSPDSLAVSLGERATINCKSSQSLLNSRTRKNYLAWYQQKPGQSPKLLIYWTSTRKSGVPDRFSGSGSGTDFTLTISSLQAEDVAVYYCKQSFILRTFGQGTKVEIK",–,–,–,–,–,–,"EC50 of killing of EOL-1 (other donors) [4]: 0.0163 µg/mL; average killing EC50, EOL-1 [5]: 0.0511 µg/mL; average killing EC50, HL-60 [5]: 1.76 µg/mL; average killing EC50, human autologous CD14+ [5]: 14.8 ng/ml"
"humanized 21C9 variant CDRs graft+(F36 and S43(LC))+L69 (HC) (antibody, V domains shown) VH: EVQLVQSGAEVKKPGASVKVSCKASGYTFTDYYLDWVRQAPGQGLEWIGRVNPYNGGTIYNQKFKGRVTLTRDTSTSTAYLELSSLRSEDTAVYYCARDHYRYDPLLDYWGQGTLVTVSS VL: DIQMTQSPSSLSASVGDRVTITCKASQDVSTAVAWFQQKPGKSPKLLIYSPSYRYTGVPSRFSGSGSGTDFTLTISSLQPEDFATYYCQQLYSTPYTFGQGTKVEIK",–,–,–,–,–,–,Kd [3]: 10.5 nM
"21C9.L2H3A54 (antibody, V domains shown) VH: EVQLVQSGAEVKKPGASVKVSCKASGYTFTDYYLDWVRQAPGQGLEWIGRVNPYAGGTIYNQKFKGRVTLTRDTSTSTAYLELSSLRSEDTAVYYCARDHYRYDPLLDYWGQGTLVTVSS VL: DIQMTQSPSSLSASVGDRVTITCKASQDVSTAVAWFQQKPGKAPKLLIYSPSYRYTGVPSRFSGSGSGTDFTLTISSLQPEDFATYYCQQLYSTPYTFGQGTKVEIK",622,0.0692,111000,48200,0.0215,445,–
"21C9.L2H3S54 (antibody, V domains shown) VH: EVQLVQSGAEVKKPGASVKVSCKASGYTFTDYYLDWVRQAPGQGLEWIGRVNPYSGGTIYNQKFKGRVTLTRDTSTSTAYLELSSLRSEDTAVYYCARDHYRYDPLLDYWGQGTLVTVSS VL: DIQMTQSPSSLSASVGDRVTITCKASQDVSTAVAWFQQKPGKAPKLLIYSPSYRYTGVPSRFSGSGSGTDFTLTISSLQPEDFATYYCQQLYSTPYTFGQGTKVEIK",286,0.0405,142000,5670,0.0207,3660,–
"6E7.L4H1eA54×38E4v1 TDB (bispecific antibody, V domains shown) VH 1: EVQLVQSGAEVKKPGASVKVSCKASGYSFTDYYMHWVRQAPGQGLEWIGRINPYAGAAFYSQNFKDRVTLTVDTSTSTAYLELSSLRSEDTAVYYCAIERGADLEGYAMDYWGQGTLVTVSS VL 1: DIQMTQSPSSLSASVGDRVTITCRASQSVSTSSYNYMHWYQQKPGKPPKLLIKYASNLESGVPSRFSGSGSGTDFTLTISSLQPEDFATYYCQHSWEIPLTFGQGTKVEIK VH 2: EVQLVQSGAEVKKPGASVKVSCKASGFTFTSYYIHWVRQAPGQGLEWIGWIYPENDNTKYNEKFKDRVTITADTSTSTAYLELSSLRSEDTAVYYCARDGYSRYYFDYWGQGTLVTVSS VL 2: DIVMTQSPDSLAVSLGERATINCKSSQSLLNSRTRKNYLAWYQQKPGQSPKLLIYWTSTRKSGVPDRFSGSGSGTDFTLTISSLQAEDVAVYYCKQSFILRTFGQGTKVEIK",–,–,–,–,–,–,"Cell killing EC50 (EOL-1 cells, human CD8+ T cells) [6]: 0.034 µg/mL"
"21C9.L2H3E54 (antibody, V domains shown) VH: EVQLVQSGAEVKKPGASVKVSCKASGYTFTDYYLDWVRQAPGQGLEWIGRVNPYEGGTIYNQKFKGRVTLTRDTSTSTAYLELSSLRSEDTAVYYCARDHYRYDPLLDYWGQGTLVTVSS VL: DIQMTQSPSSLSASVGDRVTITCKASQDVSTAVAWFQQKPGKAPKLLIYSPSYRYTGVPSRFSGSGSGTDFTLTISSLQPEDFATYYCQQLYSTPYTFGQGTKVEIK",862,0.0882,102000,49600,0.0371,748,–
"21C9.L2H3D54 (antibody, V domains shown) VH: EVQLVQSGAEVKKPGASVKVSCKASGYTFTDYYLDWVRQAPGQGLEWIGRVNPYDGGTIYNQKFKGRVTLTRDTSTSTAYLELSSLRSEDTAVYYCARDHYRYDPLLDYWGQGTLVTVSS VL: DIQMTQSPSSLSASVGDRVTITCKASQDVSTAVAWFQQKPGKAPKLLIYSPSYRYTGVPSRFSGSGSGTDFTLTISSLQPEDFATYYCQQLYSTPYTFGQGTKVEIK",–,–,–,217,0.00885,40700,–
"38E4v1 Fab (Fab, V domains shown, Fab; also called 38E4v1 (Fab Biacore measurements)) VH: EVQLVQSGAEVKKPGASVKVSCKASGFTFTSYYIHWVRQAPGQGLEWIGWIYPENDNTKYNEKFKDRVTITADTSTSTAYLELSSLRSEDTAVYYCARDGYSRYYFDYWGQGTLVTVSS VL: DIVMTQSPDSLAVSLGERATINCKSSQSLLNSRTRKNYLAWYQQKPGQSPKLLIYWTSTRKSGVPDRFSGSGSGTDFTLTISSLQAEDVAVYYCKQSFILRTFGQGTKVEIK",–,–,–,–,–,–,Kd (hCD3ε): 0.389 nM; koff (hCD3ε): 0.00317 s⁻¹; kon (hCD3ε): 8.15e+06 M⁻¹ s⁻¹
